Source: the supplement of paper PMC10126150
± gives the standard deviation of the averaged measurements.
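Further: ATP exposure 15 min at 22 °C before imaging.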

The sequences below were run on ATP (assay: switch fluorescence ratio, 500 uM ATP over buffer (Cy3 cluster intensity, sum of 5 cycles each) (fold (ratio)); higher = stronger signal-on switching upon ATP binding; sequences stand for … in TCGTCGGCAGCGTCAGATGTGTATAAGAGACAGTTTTTTTTTTTTTTTTTTTTTTTTT…TC). Settings: aptamer strand: ATP DNA aptamer (quencher-CACCTGGGGGAGTATTGCGGAGGAAGG + anchor), 100 nM annealed; ATP concentration: 500 uM.
In short: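 The quencher-labelled ATP aptamer, at 100 nM, was annealed to Cy3-labelled switching-strand clusters on a modified Illumina MiSeq flow-cell. The clusters were imaged in selection buffer, then after 15 min with 500 uM ATP at 22 °C, and this buffer/ATP cycle ran five times with NaOH stripping and re-annealing between runs. Per-cluster fluorescence ratios, summed target-cycle over summed buffer-cycle Cy3 intensity, were averaged per switch-domain sequence. Clusters outside 100-1000 RFU were excluded.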
ACTTAATGTA gave a switch fluorescence ratio of 1 ± 0.03.
For ACTTAATTGT, the switch fluorescence ratio was 1.07 ± 0.084.
ACTTAGGCGG gave a switch fluorescence ratio of 1 ± 0.011.
ACTTAGGGGA was tested, and the switch fluorescence ratio was 1.02 ± 0.036.
ACTTATAATT gave a switch fluorescence ratio of 1.02 ± 0.027.
Sequence ACTTATCGGG has a switch fluorescence ratio of 1 ± 0.029.
For ACTTATTTTT, the switch fluorescence ratio was 1 ± 0.019.
For ACTTCAAGGA, the switch fluorescence ratio was 1.04 ± 0.069.
ACTTCTAACT was tested, and the switch fluorescence ratio was 1.07 ± 0.034.
With ACTTCTCGGT the switch fluorescence ratio was 0.992 ± 0.017.
ACTTCTGGAG showed a switch fluorescence ratio of 2.15 ± 0.028.
In the case of ACTTGAAAAT, the switch fluorescence ratio is reported as 1.002 ± 0.0095.
For ACTTGATTTT, the switch fluorescence ratio was 1.02 ± 0.015.
Work on ACTTGCACTC yielded a switch fluorescence ratio of 1.34 ± 0.057.
In the case of ACTTGCCTGT, the switch fluorescence ratio is reported as 1.005 ± 0.01.
ACTTGGCAAA was tested, and the switch fluorescence ratio was 1.16 ± 0.02.
For ACTTGGCATC, the switch fluorescence ratio was 1.13 ± 0.043.
ACTTGGGCGT gave a switch fluorescence ratio of 1.03 ± 0.038.
Sequence ACTTGGTGTG has a switch fluorescence ratio of 1.01 ± 0.052.
With ACTTGGTTGG the switch fluorescence ratio was 0.9869 ± 0.00088.
Sequence ACTTGTAGCT has a switch fluorescence ratio of 1.02 ± 0.011.
Sequence ACTTGTCGCG has a switch fluorescence ratio of 1.02 ± 0.033.
In the case of ACTTGTGGGC, the switch fluorescence ratio is reported as 0.973 ± 0.045.
ACTTTATCTT showed a switch fluorescence ratio of 1.063 ± 0.01.
In the case of ACTTTATTTC, the switch fluorescence ratio is reported as 1.011 ± 0.006.
With ACTTTCGGGA the switch fluorescence ratio was 0.995 ± 0.011.
Sequence ACTTTCTGGA has a switch fluorescence ratio of 1 ± 0.024.
ACTTTCTTAC showed a switch fluorescence ratio of 1.12 ± 0.017.
For ACTTTGAATG, the switch fluorescence ratio was 1.02 ± 0.027.
For ACTTTGATGT, the switch fluorescence ratio was 1.01 ± 0.012.
ACTTTGGTTA gave a switch fluorescence ratio of 1.04 ± 0.042.
For ACTTTGTCTG, the switch fluorescence ratio was 0.991 ± 0.041.
Work on ACTTTTAGTT yielded a switch fluorescence ratio of 1.05 ± 0.018.
With ACTTTTGACT the switch fluorescence ratio was 0.982 ± 0.022.
Work on AGAAACAGGA yielded a switch fluorescence ratio of 1.04 ± 0.04.
With AGAAAGGCGG the switch fluorescence ratio was 0.9715 ± 0.0027.
Sequence AGAAAGGGGT has a switch fluorescence ratio of 1.01 ± 0.055.
With AGAAAGTGGT the switch fluorescence ratio was 0.992 ± 0.017.
Work on AGAAATTCAT yielded a switch fluorescence ratio of 0.992 ± 0.029.
Work on AGAAATTGGA yielded a switch fluorescence ratio of 1.02 ± 0.044.
Work on AGAAATTTGG yielded a switch fluorescence ratio of 1.01 ± 0.02.
AGAACATAGA showed a switch fluorescence ratio of 0.986 ± 0.0025.
Work on AGAACCGTGT yielded a switch fluorescence ratio of 0.989 ± 0.041.
Sequence AGAACGTCTA has a switch fluorescence ratio of 1 ± 0.054.
For AGAAGAGCTT, the switch fluorescence ratio was 1.011 ± 0.0024.
In the case of AGAAGAGTTT, the switch fluorescence ratio is reported as 0.95 ± 0.018.
Work on AGAAGATTGA yielded a switch fluorescence ratio of 0.999 ± 0.019.
For AGAAGGGTAT, the switch fluorescence ratio was 0.976 ± 0.017.
With AGAAGGTGGG the switch fluorescence ratio was 1.01 ± 0.021.
For AGAAGGTTTG, the switch fluorescence ratio was 0.963 ± 0.01.
In the case of AGAAGTACGT, the switch fluorescence ratio is reported as 1.04 ± 0.013.
In the case of AGAAGTCGGA, the switch fluorescence ratio is reported as 1 ± 0.011.
AGAAGTGGAG gave a switch fluorescence ratio of 1.004 ± 0.01.
AGAAGTTGAG showed a switch fluorescence ratio of 0.984 ± 0.01.
AGAAGTTTCG was tested, and the switch fluorescence ratio was 1.011 ± 0.0068.
AGAATATGGG was tested, and the switch fluorescence ratio was 0.994 ± 0.011.
Work on AGAATATGTT yielded a switch fluorescence ratio of 0.983 ± 0.014.
Sequence AGAATCACTG has a switch fluorescence ratio of 1.08 ± 0.04.
AGAATGATCG showed a switch fluorescence ratio of 0.994 ± 0.033.
Sequence AGAATGATTG has a switch fluorescence ratio of 0.988 ± 0.017.
Work on AGAATGGGTT yielded a switch fluorescence ratio of 1.03 ± 0.029.
In the case of AGAATTCCGT, the switch fluorescence ratio is reported as 0.992 ± 0.01.
Sequence AGAATTTCAT has a switch fluorescence ratio of 1.01 ± 0.0045.
AGAATTTGTT was tested, and the switch fluorescence ratio was 1 ± 0.024.
Work on AGACAAAAAT yielded a switch fluorescence ratio of 1.026 ± 0.0065.
AGACACGTTA showed a switch fluorescence ratio of 1.28 ± 0.017.
AGACAGGGGG showed a switch fluorescence ratio of 1.11 ± 0.2.
For AGACATTCCT, the switch fluorescence ratio was 1.3 ± 0.34.
In the case of AGACCTCTTT, the switch fluorescence ratio is reported as 0.988 ± 0.02.
AGACGAGGCT gave a switch fluorescence ratio of 1.01 ± 0.021.
Work on AGACGGGGGC yielded a switch fluorescence ratio of 0.978 ± 0.12.
For AGACTAAAAG, the switch fluorescence ratio was 0.986 ± 0.015.
Sequence AGACTGAATT has a switch fluorescence ratio of 1.03 ± 0.02.
AGACTGATAC showed a switch fluorescence ratio of 1.08 ± 0.025.
AGACTGGGCT gave a switch fluorescence ratio of 1.01 ± 0.011.
Work on AGACTGGGTT yielded a switch fluorescence ratio of 0.971 ± 0.012.
AGACTGTTAG showed a switch fluorescence ratio of 0.976 ± 0.029.
Work on AGACTTGTTA yielded a switch fluorescence ratio of 0.971 ± 0.021.
With AGACTTTTGG the switch fluorescence ratio was 0.987 ± 0.011.
With AGAGAAAGGC the switch fluorescence ratio was 1.08 ± 0.051.
With AGAGAACGCT the switch fluorescence ratio was 0.967 ± 0.035.
With AGAGACTGAG the switch fluorescence ratio was 1.045 ± 0.0026.
With AGAGAGCGAA the switch fluorescence ratio was 1.01 ± 0.022.
For AGAGAGGACG, the switch fluorescence ratio was 1.02 ± 0.033.
For AGAGAGTGAC, the switch fluorescence ratio was 0.981 ± 0.01.
AGAGAGTTAT was tested, and the switch fluorescence ratio was 1.02 ± 0.011.
AGAGAGTTTG was tested, and the switch fluorescence ratio was 1.01 ± 0.02.
AGAGATGTGG was tested, and the switch fluorescence ratio was 0.958 ± 0.036.
With AGAGCATTTG the switch fluorescence ratio was 1.01 ± 0.058.
AGAGCCACTG gave a switch fluorescence ratio of 1.01 ± 0.024.
In the case of AGAGCCGGGA, the switch fluorescence ratio is reported as 0.988 ± 0.043.
Sequence AGAGCGGA has a switch fluorescence ratio of 0.981 ± 0.011.
With AGAGCGGCAA the switch fluorescence ratio was 2.81 ± 2.4.
Sequence AGAGGAAAGG has a switch fluorescence ratio of 1.022 ± 0.0041.
In the case of AGAGGAGGGA, the switch fluorescence ratio is reported as 0.9737 ± 0.0047.
AGAGGAGGGG showed a switch fluorescence ratio of 1.01 ± 0.042.
For AGAGGATGAT, the switch fluorescence ratio was 0.962 ± 0.013.
Work on AGAGGATTTT yielded a switch fluorescence ratio of 1 ± 0.015.
For AGAGGCAAGA, the switch fluorescence ratio was 1.16 ± 0.028.
AGAGGCAAGG showed a switch fluorescence ratio of 1.0062 ± 0.0002.
AGAGGCCGAT gave a switch fluorescence ratio of 1.022 ± 0.0012.
For AGAGGCGTTA, the switch fluorescence ratio was 1.01 ± 0.025.
AGAGGGAATG was tested, and the switch fluorescence ratio was 0.975 ± 0.03.
For AGAGGGACAT, the switch fluorescence ratio was 1.09 ± 0.1.
With AGAGGGCATT the switch fluorescence ratio was 0.967 ± 0.045.
For AGAGGGGGGG, the switch fluorescence ratio was 0.999 ± 0.038.
AGAGGGGGTG showed a switch fluorescence ratio of 0.96 ± 0.013.
AGAGGGGTTG showed a switch fluorescence ratio of 0.972 ± 0.016.
For AGAGGGTACG, the switch fluorescence ratio was 1.06 ± 0.017.
Sequence AGAGGGTCTC has a switch fluorescence ratio of 0.973 ± 0.058.
AGAGGGTTAC showed a switch fluorescence ratio of 0.999 ± 0.036.
For AGAGGGTTTT, the switch fluorescence ratio was 0.988 ± 0.031.
AGAGGTAAGG showed a switch fluorescence ratio of 0.983 ± 0.019.
Sequence AGAGGTAGGG has a switch fluorescence ratio of 0.984 ± 0.035.
With AGAGGTGTGC the switch fluorescence ratio was 1.049 ± 0.01.
Sequence AGAGGTGTGG has a switch fluorescence ratio of 0.991 ± 0.05.
AGAGGTTAAG gave a switch fluorescence ratio of 1.03 ± 0.08.
AGAGGTTATT gave a switch fluorescence ratio of 0.9994 ± 0.0069.
AGAGTAAGTG showed a switch fluorescence ratio of 0.962 ± 0.025.
AGAGTAGTGT gave a switch fluorescence ratio of 0.99 ± 0.032.
With AGAGTAGTTG the switch fluorescence ratio was 0.9708 ± 0.0076.
AGAGTATGAA showed a switch fluorescence ratio of 1 ± 0.032.
With AGAGTATGGG the switch fluorescence ratio was 1.01 ± 0.038.
AGAGTGCGGT showed a switch fluorescence ratio of 1.011 ± 0.006.
AGAGTGGGGT showed a switch fluorescence ratio of 0.962 ± 0.033.
With AGAGTGGGTG the switch fluorescence ratio was 0.978 ± 0.013.
With AGAGTGGTGG the switch fluorescence ratio was 0.9769 ± 0.0097.
For AGAGTGTTTC, the switch fluorescence ratio was 0.943 ± 0.038.
Work on AGAGTTATGC yielded a switch fluorescence ratio of 1.022 ± 0.01.
AGAGTTGAGA was tested, and the switch fluorescence ratio was 1.0102 ± 0.001.
AGAGTTGTTA showed a switch fluorescence ratio of 0.996 ± 0.013.
Work on AGAGTTTGAA yielded a switch fluorescence ratio of 1.02 ± 0.024.
AGAGTTTTCT showed a switch fluorescence ratio of 0.9916 ± 0.0094.
AGATACGAGG gave a switch fluorescence ratio of 1.03 ± 0.011.
AGATACTGCA gave a switch fluorescence ratio of 1.05 ± 0.0087.
For AGATAGAGTA, the switch fluorescence ratio was 1.006 ± 0.0033.
With AGATAGATTG the switch fluorescence ratio was 1 ± 0.04.
With AGATAGGG the switch fluorescence ratio was 0.96188 ± 0.00038.
Sequence AGATAGGGAT has a switch fluorescence ratio of 1.04 ± 0.053.
With AGATATAATA the switch fluorescence ratio was 1.02 ± 0.035.
Sequence AGATATAGCG has a switch fluorescence ratio of 1.029 ± 0.0076.
In the case of AGATATCATG, the switch fluorescence ratio is reported as 0.973 ± 0.037.
AGATATGGTG was tested, and the switch fluorescence ratio was 1.01 ± 0.089.
AGATATGTGT gave a switch fluorescence ratio of 0.998 ± 0.013.
Sequence AGATATTAGA has a switch fluorescence ratio of 1.017 ± 0.0048.
AGATATTGGG showed a switch fluorescence ratio of 0.992 ± 0.068.
Work on AGATCGCTTG yielded a switch fluorescence ratio of 0.975 ± 0.0019.
AGATCGTGGG was tested, and the switch fluorescence ratio was 1.04 ± 0.015.
In the case of AGATCTTGTG, the switch fluorescence ratio is reported as 1 ± 0.022.
Work on AGATGAATGC yielded a switch fluorescence ratio of 0.989 ± 0.011.
AGATGACGTT showed a switch fluorescence ratio of 1.01 ± 0.046.
In the case of AGATGACTTT, the switch fluorescence ratio is reported as 0.98 ± 0.034.
AGATGAGGGC gave a switch fluorescence ratio of 1.04 ± 0.022.
